For one molecule, Kd, koff and kon results are on record in patent CN111018978A (DONGGUAN PENGZHI BIOTECHNOLOGY CO LTD, dated 2020).

In this assay the target is T1, 人心肌肌钙蛋白I (cTnI) (human, UniProt P19429 1-210, limits assumed).
T1 construct: Both are treated here as one molecule; also called cTnI蛋白; cTnI质控品重组蛋白
The assay is described as follows: BLI (AMC sensor), antibody captured, cTnI recombinant protein in solution.

T1 sequence (P19429 whole entry): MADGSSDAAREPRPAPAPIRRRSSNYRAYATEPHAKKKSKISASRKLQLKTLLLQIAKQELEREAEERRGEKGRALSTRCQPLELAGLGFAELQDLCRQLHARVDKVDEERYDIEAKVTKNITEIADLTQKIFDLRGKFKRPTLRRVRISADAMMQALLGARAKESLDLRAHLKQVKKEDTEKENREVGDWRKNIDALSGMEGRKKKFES

B1: Anti-cTnI 6E3 重组抗体 (WT) (antibody, mouse IgG1, kappa, V domains shown)
VH: EVQLQQSGPEVVKPGASVKISCKASGFIFSGQTMNWVKQSGEKNLEWIGLLNPSDNTTYNNKFKGKATLTVDKSSNTAYMQLLSLTSEDSAVYYCSSFGSWAQGTLVTVSA
VL: DIVLTQSPASLAVSLGQRATISCKASNSIDYEGDSYMNWYQQKPGQSPKLLIFVASLVDSGIPARFSASGSGTDFTLNIHPVEEEDAATYYCQQTYEGPWTFGGGTKLEIKR
notes: also called 样品1的抗体; Anti-cTnI 6E3单克隆抗体
In the case of B1, the Kd was 0.0655 µM, the koff worked out at 0.00278 s⁻¹ and the on-rate constant (kon) is 42500 M⁻¹ s⁻¹.
